Laboratory results: patent EP4039268A1 (IMBA-Institut für Molekulare Biotechnologie GmbH, dated 2022)

Legend:
[1] = target: T1, human recombinant soluble ACE2 (human, UniProt Q9BYF1 18-740); assay: ELISA
T1 construct: also called hrsACE2

[2] = target: T2, monomeric SARS-CoV-2 receptor binding domain (RBD-H6) (SARS-CoV-2, UniProt P0DTC2 319-541); assay: ELISA screen
T2 construct: Made in HEK293-6E cells; also called RBD Spike; monomeric RBD

[3] = target: T3, full-length trimeric SARS-CoV-2 Spike protein (Spike-H6) (SARS-CoV-2, N-glycosylated (22 N-glycosylation sites)); assay: ELISA screen
T3 construct: also called trimeric Spike; full-length Spike-H6

[4] = target: T1, human recombinant soluble ACE2; assay: ELISA screen
[5] = target: T3, full-length trimeric SARS-CoV-2 Spike …; assay: SPR, Spike immobilized, bivalent analyte model, first binding step
[6] = target: T3, full-length trimeric SARS-CoV-2 Spike …; assay: AFM single molecule force spectroscopy, Evans model
[7] = target: T3, full-length trimeric SARS-CoV-2 Spike …; assay: inhibition of Spike binding to Vero E6 cells, AFM

T1 sequence (Q9BYF1 18-740 limits assumed): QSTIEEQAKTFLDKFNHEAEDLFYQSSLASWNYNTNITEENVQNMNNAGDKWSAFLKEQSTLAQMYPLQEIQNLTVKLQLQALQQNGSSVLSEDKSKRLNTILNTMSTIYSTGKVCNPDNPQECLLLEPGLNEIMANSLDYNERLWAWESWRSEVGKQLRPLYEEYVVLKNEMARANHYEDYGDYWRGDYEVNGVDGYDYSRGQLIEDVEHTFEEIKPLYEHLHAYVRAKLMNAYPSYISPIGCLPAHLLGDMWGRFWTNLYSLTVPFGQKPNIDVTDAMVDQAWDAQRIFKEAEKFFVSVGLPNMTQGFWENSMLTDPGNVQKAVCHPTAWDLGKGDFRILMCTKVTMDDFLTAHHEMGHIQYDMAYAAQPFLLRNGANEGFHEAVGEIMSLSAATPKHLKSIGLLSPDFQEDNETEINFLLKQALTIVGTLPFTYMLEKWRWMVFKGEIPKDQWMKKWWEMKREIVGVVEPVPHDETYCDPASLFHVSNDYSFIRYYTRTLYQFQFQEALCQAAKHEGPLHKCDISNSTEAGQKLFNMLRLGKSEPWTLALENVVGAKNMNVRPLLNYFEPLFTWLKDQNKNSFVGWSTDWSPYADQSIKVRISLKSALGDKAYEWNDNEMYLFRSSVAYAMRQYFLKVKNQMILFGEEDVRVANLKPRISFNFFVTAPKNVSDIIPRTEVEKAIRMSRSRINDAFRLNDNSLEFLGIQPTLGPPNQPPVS

B1: Clec11a CRD-mouse IgG2a-Fc fusion protein (Fc fusion)
chain: LGHKCFLLSRDFETQAAAQARCKARGGSLAQPADRQQMDALSRYLRAALAPYNWPVWLGVHDRRSEGLYLFENGQRVSFFAWHRAFSLESGAQPSAATHPLSPDQPNGGVLENCVAQASDDGSWWDHDCERRLYFVCEGGGSGGGSGGGS
- binding result [1]: no binding (tested: 10 µg/ml)
- Mean normalized OD [2]: 0.011 OD
- Mean normalized OD [3]: 0.032 OD
- Mean normalized OD [4]: 0.17 OD

B2: Sftpd CRD-mouse IgG2a-Fc fusion protein (Fc fusion)
chain: VGDKIFRTADSEKPFEDAQEMCKQAGGQLASPRSATENAAIQQLITAHNKAAFLSMTDVGTEGKFTYPTGEPLVYSNWAPGEPNNNGGAENCVEIFTNGQWNDKACGEQRLVICEFGGGSGGGSGGGS
- binding result [1]: no binding (tested: 10 µg/ml)
- Mean normalized OD [2]: 0.002 OD
- Mean normalized OD [3]: 0.031 OD
- Mean normalized OD [4]: 0.016 OD

B3: Asgr2 CRD-mouse IgG2a-Fc fusion protein (Fc fusion)
chain: CCPVNWVEFGGSCYWFSRDGLTWAEADQYCQLENAHLLVINSREEQDFVVKHRSQFHIWIGLTDRDGSWKWVDGTDYRSNYRNWAFTQPDNWQGHEQGGGEDCAEILSDGHWNDNFCQQVNRWVCEKGGGSGGGSGGGS
- binding result [1]: no binding (tested: 10 µg/ml)
- Mean normalized OD [2]: 0.013 OD
- Mean normalized OD [3]: 0.003 OD
- Mean normalized OD [4]: 0.034 OD

B4: Cd22 CRD-mouse IgG2a-Fc fusion protein (Fc fusion)
chain: SANDWTVDHPQTLFAWEGACIRIPCKYKTPLPKARLDNILLFQNYEFDKATKKFTGTVLYNATKTEKDPESELYLSKQGRVTFLGNRIDNCTLKIHPIRANDSGNLGLRMTAGTERWMEPIHLNVSEGGGSGGGSGGGS
- binding result [1]: no binding (tested: 10 µg/ml)
- Mean normalized OD [2]: 0.004 OD
- Mean normalized OD [3]: 0.027 OD
- Mean normalized OD [4]: 0.006 OD

B5: Clec4g CRD-mouse IgG2a-Fc fusion protein (Fc fusion)
chain: FQGSCYYFSETQATWDTAQSYCGGQGAHLVIVRGLNEQGFLSQHTRGRGYWLGLRAVRHLNKIQGYRWVDGASLNFSHWNSGEPNDSRGHEDCIMMLHSGLWNDAPCTNERDGWICGGGSGGGSGGGS
- Kd [5]: 1.62 µM
- koff [5]: 0.0997 s⁻¹
- kon [5]: 61700 M⁻¹ s⁻¹
- koff [6]: 0.037 s⁻¹
- binding result [1]: no binding (tested: 10 µg/ml)
- Mean normalized OD [3]: 1.68 OD
- Mean normalized OD [4]: 0.04 OD
- Ki [7]: 0.035 to 0.07 µM

B6: Thbd CRD-mouse IgG2a-Fc fusion protein (Fc fusion)
chain: VEHECFALFQGPATFLDASQACQRLQGHLMTVRSSVAADVISLLLSQSSMDLGPWIGLQLPQGCDDPVHLGPLRGFQWVTGDNHTSYSRWARPNDQTAPLCGPLCVTVSTATEAAPGEPAWEEKPCETETQGFLCEFGGGSGGGSGGGS
- binding result [1]: no binding (tested: 10 µg/ml)
- Mean normalized OD [2]: 0 OD
- Mean normalized OD [3]: 0.003 OD
- Mean normalized OD [4]: 0.001 OD

B7: Cd72 CRD-mouse IgG2a-Fc fusion protein (Fc fusion)
chain: CCPCGWIPYQERCFYISHTLGSLEESQKYCTSLSSKLAAFDEPSKYYYEVSLPSGLEELLDRSKSYWIQMSKKWRQDSDSQSRHCVRIKTYYQKWERTISKCAELHPCICESGGGSGGGSGGGS
- binding result [1]: no binding (tested: 10 µg/ml)
- Mean normalized OD [2]: 0.015 OD
- Mean normalized OD [3]: 0.033 OD
- Mean normalized OD [4]: 0.044 OD

B8: Siglec15 CRD-mouse IgG2a-Fc fusion protein (Fc fusion)
chain: PAQRWSMQVPAEVNAEAGDAAVLPCTFTHPHRHYDGPLTAIWRSGEPYAGPQVFRCTAAPGSELCQTALSLHGRFRLLGNPRRNDLSLRVERLALADSGRYFCRVEFTGDAHDRYESRHGGGSGGGSGGGS
- binding result [1]: no binding (tested: 10 µg/ml)
- Mean normalized OD [2]: 0.001 OD
- Mean normalized OD [3]: 0.008 OD
- Mean normalized OD [4]: 0.011 OD

B9: Clec1b CRD-mouse IgG2a-Fc fusion protein (Fc fusion)
chain: HGDSCYGFFRRNLTWEESKQYCTEQNATLVKTASQSTLDYIAERITSVRWIGLSRQNSKKDWMWEDSSVLRKNGINLSGNTEENMNCAYLHNGKIHPASCKERHYLICEGGGSGGGSGGGS
- binding result [1]: no binding (tested: 10 µg/ml)
- Mean normalized OD [2]: 0.03 OD
- Mean normalized OD [3]: 0.024 OD
- Mean normalized OD [4]: 0.04 OD

B10: Clec14a CRD-mouse IgG2a-Fc fusion protein (Fc fusion)
chain: ASGACYSLHHATFKRRAAEEACSLRGGTLSTVHSGSEFQAVLLLLRAGPGPGGGSKDLLFWVALERSISQCTQEKEPLRGFSWLHPDSEDSEDSPLPWVEEPQRSCTVRKCAALQATRGVEPAGWKEMRCHLRTDGYLCKYGGGSGGGSGGGS
- binding result [1]: no binding (tested: 10 µg/ml)
- Mean normalized OD [2]: 0.004 OD
- Mean normalized OD [3]: 0.012 OD
- Mean normalized OD [4]: 0.029 OD

B11: Clec2e CRD-mouse IgG2a-Fc fusion protein (Fc fusion)
chain: FGNKCFYFSEDMGNWTFSQSSCIALDAHLALFDSLEELNFLKRYKGASDHWIGLHRESSEHPWIWTDNTEYNNLVLTRGGGECAYLSNRGIYNSSGDIHKKWICNGGGSGGGSGGGS
- binding result [1]: no binding (tested: 10 µg/ml)
- Mean normalized OD [2]: 0.016 OD
- Mean normalized OD [3]: 0.017 OD
- Mean normalized OD [4]: 0.066 OD

B12: Clec10a CRD-mouse IgG2a-Fc fusion protein (Fc fusion)
chain: CCPLHWTEHEGSCYWFSESEKSWPEADKYCRLENSHLVVVNSLEEQNFLQNRLANVVSWIGLTDQNGPWRWVDGTDFEKGFKNWAPLQPDNWFGHGLGGGEDCAHITTGGPWNDDVCQRTFRWICEMGGGSGGGSGGGS
- binding result [1]: no binding (tested: 10 µg/ml)
- Mean normalized OD [2]: 0.064 OD
- Mean normalized OD [3]: 0.069 OD
- Mean normalized OD [4]: 0.125 OD

B13: Clec12b CRD-mouse IgG2a-Fc fusion protein (Fc fusion)
chain: YGNSCYYFSINEEKSWSDSRKDCIDKNATLVKIDSTEERDLLQSQLSLTFSFFWLGLSWNSSGRNWLWEDGSFPPPTLFSDKELASFNGSRDCAYFERGNIYASRCSAEIPWICEGGGSGGGSGGGS
- binding result [1]: no binding (tested: 10 µg/ml)
- Mean normalized OD [2]: 0.001 OD
- Mean normalized OD [3]: 0.002 OD
- Mean normalized OD [4]: 0.007 OD
